Test results published in article PMC4719083, “Myosin IXa Binds AMPAR and Regulates Synaptic Structure, LTP, and Cognitive Function” (Frontiers in Molecular Neuroscience, 2016).

Biological target: T1, GST C-terminal (Myo9a amino acids 2330-2626 fused to GST) (rat, UniProt Q9Z1N3 2330-2626)
T1 construct: Myosin IXa (Myo9a), rat, NCBI AJ001713, amino acids 2330-2626 (C-terminus); Cloned into pGEX-4T1; also called Myo9a GST C-term; Myo9a C-terminus; source: E. coli BL21, purified, immobilized on glutathione-Sepharose 4B beads
T1 sequence (looked up): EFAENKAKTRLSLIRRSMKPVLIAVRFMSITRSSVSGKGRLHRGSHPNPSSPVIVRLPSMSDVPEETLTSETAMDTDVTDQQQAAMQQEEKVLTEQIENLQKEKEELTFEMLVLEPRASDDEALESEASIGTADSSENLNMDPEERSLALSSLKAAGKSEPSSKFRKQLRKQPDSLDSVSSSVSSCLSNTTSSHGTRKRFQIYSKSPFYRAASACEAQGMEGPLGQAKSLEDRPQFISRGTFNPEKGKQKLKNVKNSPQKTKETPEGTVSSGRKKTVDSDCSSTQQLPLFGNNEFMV
Experiment: pull-down; purified GluA2 C-term (released from GST by thrombin, in PBS) incubated with glutathione Sepharose 4B-coupled GST or GST C-term from Myo9a; immunoblot
Settings: both partners purified

B1: GluA2 C-term (GluA2 intracellular C-terminal tail, amino acids 834-883, released from GST by thrombin) (domain or fragment, rat, UniProt P19491 834-883, looked up)
chain: EFCYKSRAEAKRMKVAKNPQNINPSSSQNSQNFATYKEGYNVYGIESVKI
notes: AMPA receptor subunit GluA2, rat, NCBI M85035, intracellular C-terminal tail, amino acids 834-883; Cloned into pGEX-4T1; also called purified GluA2 C-terminus; GluA2 C-terminal tail; source: E. coli BL21, purified with glutathione-Sepharose 4B resin, released by thrombin
- binding result: binds
